Assay results: patent US20230158109A1, “USE OF CD83 IN COMBINATION THERAPIES” (Colmmune, Inc., priority 2006, published 2023)

Key:
dendritic cells = settings: soluble CD83 4 μg/ml in final maturation step, cited from earlier work
[1] = system: spleen cells (lymphocytes); assay: KLH restimulation of spleen cells from sCD83-treated EAE mice; type: in vivo, mouse; settings: sCD83 100 μg daily for ten days, KLH 28 days after last injection, spleen cells ten days later
Protocol: In order to induce EAE, mice were immunized with a peptide derived from myelin oligodendrocyte glycoprotein (MOG), a constituent of the myelin sheath surrounding neurons of the central nervous system, and with pertussis toxin (see, e.g., Zinser et al. (2004) J. Exp. Med. 200: 345-351). Beginning ten days later, the mice were inoculated with soluble CD83 (100 μg) every day for ten days. 28 days after the last injection of soluble CD83, mice were injected subcutaneously with keyhole limpet hemocyanin (“KLH,” 10 μg/mouse). Ten days later, spleen cells were removed from the mice and restimulated with different doses of KLH. Lymphocyte proliferation in response to this stimulation was measured by [^3H]-thymidine incorporation.

[2] = system: C57BL/6 Hearts in BALB/c Recipients; assay: Intra-abdominal heterotopic heart transplantation, graft survival, C57BL/6 to BALB/c; type: in vivo, mouse; settings: sCD83 100 μg i.p. daily day -1 to 7, then every other day to day 28, tacrolimus 8 mg/kg/day oral, MMF 80 mg/kg/day oral
Protocol: Treatment with tacrolimus was by daily oral administration of a subtherapeutic dose of 8 mg/kg/day, and treatment with MMF was by daily oral administration of a low dose of 80 mg/kg/day.
In further experiments, transplant recipients were treated with a shorter course of administrations and a different route of administration.

spleen cells = assay: KLH re-stimulation assay, CD83 window of effectiveness; type: in vivo, CBA mice; settings: sCD83 100 μg 10 times every second day; KLH after 11 days; spleen cells ten days later
Protocol: Mice were evaluated to determine the period of time after administration of CD83 in which a subject would be tolerized to another administered antigen. Soluble CD83 (100 μg) was administered to CBA mice by injection 10 times every second day. After 11 days, treated animals were immunized with keyhole limpet hemocyanin (KLH, 10 μg). Ten days later, spleen cells were removed and re-stimulation assays were performed as described in International patent publication WO 2004/046182, the contents of which are incorporated by reference.

[3] = system: C3H Hearts in C57BL/6 Recipients; assay: Heterotopic heart transplantation, graft survival, C3H to C57BL/6
Protocol: (§1) Hearts were removed from donor mice as indicated and transplanted into the peritoneal cavity of recipient mice (i.e., heterotopic transplantation). Recipient mice were treated as indicated, with some treatments beginning prior to transplantation. Survival of the allograft was monitored and scored as follows: “A,” beating strongly; “B,” mild decline in the intensity of pulsation; “C,” noticeable decline in the intensity of pulsation; “D,” complete cessation of cardiac impulses. Mean survival time of the transplanted tissue was determined for each treatment.
In a further set of experiments, C3H mouse hearts were transplanted into the peritoneal cavity of C57BL/6 mice (results shown in Table 3 and FIG. 7). […] Other treatments included subtherapeutic doses of either anti-CD45RB monoclonal antibody (“mAb”) (i.e., 100 μg/mouse every day from days 0 through 14 by intravenous injection) or sirolimus (i.e., 2 mg/kg every day from days 0 through 14 by oral administration (“p.o.”)).

[4] = system: B cells of transplant recipient; assay: Ex vivo IgM and IgG production by transplant recipient B cells; parameters: species or system mouse; settings: C3H heart in C57BL/6; sCD83 100 μg daily i.p.; B cells day 8, LPS, 72 hours
Protocol: IgM & IgG production: C57B1/6 mice were given a heterotopic cardiac allograft from a C3H mouse. Mice then were left untreated or were treated with a daily dose of 100 μg of sCD83 by intraperitoneal injection. Mice were then sacrificed on day 8, which was approximately the mean survival time of untreated mice. B cells were harvested from the spleens of recipient mice and cultured at 2×10^6 B-cells/well with 20 ug/mL LPS (to induce antibody production, with no added sCD83). After 72 hours of culture, supernatants were harvested and IgM and IgG production measured by ELISA.
Eight days after transplantation (when the transplant would typically be rejected in untreated mice), the mice were sacrificed. B cells were purified from recipient mice, cultured, and stimulated with LPS. After 72 hours of culture, supernatants were collected and IgM and IgG production was measured using ELISA.

[5] = system: C3H Hearts in BALB/c Recipients; assay: Heterotopic heart transplantation, graft survival, C3H to BALB/c; settings: sCD83 100 μg i.p. daily day -1 to 28, sirolimus 2 mg/kg oral day 0-14, anti-CD45RB 100 μg i.v. day 0-14
Protocol: as §1
In a first set of experiments, C3H donor mice and BALB/c recipient mice were used. In this set of experiments, sCD83 treatment began on day −1 (i.e., the day prior to transplantation) and lasted until day 28; each day, 100 μg of sCD83 was administered to each mouse by intraperitoneal injection. Sirolimus treatment began on day 0 (i.e., the day of transplantation) and continued until day 14; each day, 2 mg/kg of sirolimus was administered orally to each mouse. Anti-CD45RB treatment began on day 0 and continued until day 14; each day, 100 μg of anti-CD45RB (BioExpress, Inc., West Lebanon, New Hampshire) was administered to each mouse intravenously.

B1: sCD83: recombinant extracellular domain of human CD83 cleaved from GST fusion, with four extra amino acids (Gly-Ser-Pro-Gly) at the amino terminal (protein, listed as Homo sapiens)
chain: GSPGTPEVKVACSEDVDLPCTAPWDPQVPYTVSWVKLLEGGEERMETPQEDHLRGQHYHQKGQNGSFDAPNERPYSLKIRNTTSCNSGTYRCTLQDPDGQRNLSGKVILRVTGCPAQRKEETFKKYRAE
modifications: printed: Gly-Ser-Pro-Gly; (1)..(125) Extracellular domain of human CD83
notes: recombinant extracellular domain of human CD83 cleaved from GST fusion, with four extra amino acids (Gly-Ser-Pro-Gly) at the amino terminal
Q: Which results are given for B1?
A: CD14 positive cells (dendritic cells; compared with normally matured DCs): increase; Cell surface expression of CD80 (dendritic cells; normally matured DCs 96%): 66%; Cell surface expression of CD83 (dendritic cells; normally matured DCs 96%): 30%; Lymphocyte proliferation in response to KLH ([3H]-thymidine incorporation) [1]: did not induce long-lasting, global immunosuppression; MST [2]: 15.8 ± 1.0 days; Tolerization to KLH (re-stimulation assay) (spleen cells): not tolerized to the antigen; Acute rejection / graft acceptance (in words) ([3]; sCD83 100 μg): reduced symptoms of acute rejection; MST ([3]; sCD83 100 μg i.p. daily days 1-7 then q.o.d. days 8-16, sirolimus 2 mg/kg p.o. days 0-14, anti-CD45RB mAb 100 μg i.v. days 0-14): 10.7 ± 1.5 days; MST ([3]; sCD83 266 ug): 14.7 ± 0.6 days; MST ([3]; sCD83 400 ug): 15 ± 1.0 days; Ex vivo antibody production (IgM and IgG, ELISA) [4]: suppresses; MST [5]: 10.0 ± 1.4 days
